First the molecules themselves.
B1: NLV3 TCR beta chain (CDR3β only) (parent)
chain: ASSPTGGSPSPLH

This assay covers variants of B1. Nature of the assay: T-Switch: Jurkat TCRβ−/− cells expressing a CDR3 saturation-mutagenesis library, stained with two peptide-HLA-A*02:01 tetramers (original and novel peptide) plus anti-CD3, FACS-sorted into four gates, gDNA sequenced. The note with it: tetramers 1 µg/mL, 30 min on ice, SP, DP and SW gates expanded about 10 days between rounds ('two to three rounds of selection' in the Methods), unresolved parent, parent is a CDR3 fragment, scale: fold enrichment, numbering: sequential-on-construct, sequence starts at 1.

Where [1] appears, read: with both tetramers (double-negative gate, binds neither): HLA-A*02:01 with … and with …, gate DN: OPPOSITE: higher = more of the variant in the gate that binds neither peptide = LESS binding (or no expression; inferred). Fold enrichment of the CDR3 variant in one FACS gate of a two-tetram.
Where [2] appears, read: with both tetramers (double-positive gate): HLA-A*02:01 with … and with …, gate DP: higher = more of the variant in the gate that binds both peptides. Fold enrichment of the CDR3 variant in one FACS gate of a two-tetramer stain. SP/DP/SW gates were expanded and re-sorted bef.

Turning to […] (CDR3 as printed); S10Q derived by comparing it with the table's wild-type CDR3 ASSPTGGSPSPLH, the enrichment turned out to be 0.571 under setting [1] and 0 under setting [2].
Taken in the same sequence, the figures for […] (CDR3 as printed); A1K derived by comparing it with the table's wild-type CDR3 ASSPTGGSPSPLH were 0.994 and 0.
For […] (CDR3 as printed); L12Q derived by comparing it with the table's wild-type CDR3 ASSPTGGSPSPLH, the enrichment is, setting by setting: under setting [1], 0.615; under setting [2], 0.
The like results for […] (CDR3 as printed); G6Q derived by comparing it with the table's wild-type CDR3 ASSPTGGSPSPLH were, in that order, 1.2 and 0.
The like results for […] (CDR3 as printed); G7S derived by comparing it with the table's wild-type CDR3 ASSPTGGSPSPLH were, in that order, 1.32 and 0.
Turning to […] (CDR3 as printed); H13S derived by comparing it with the table's wild-type CDR3 ASSPTGGSPSPLH, the enrichment reads like this: under setting [1], 0.978; under setting [2], 0.
[…] (CDR3 as printed); G7Q derived by comparing it with the table's wild-type CDR3 ASSPTGGSPSPLH: the enrichment worked out at 1.09 under setting [1] and 0 under setting [2].
The like results for […] (CDR3 as printed); L12I derived by comparing it with the table's wild-type CDR3 ASSPTGGSPSPLH were, in that order, 0.883 and 0.
The like results for […] (CDR3 as printed); G6Y derived by comparing it with the table's wild-type CDR3 ASSPTGGSPSPLH were, in that order, 0.661 and 0.
The like results for […] (CDR3 as printed); P11H derived by comparing it with the table's wild-type CDR3 ASSPTGGSPSPLH were, in that order, 1.37 and 0.
With […] (CDR3 as printed); S2M derived by comparing it with the table's wild-type CDR3 ASSPTGGSPSPLH, the enrichment reads like this: under setting [1], 0.757; under setting [2], 0.
[…] (CDR3 as printed); A1V derived by comparing it with the table's wild-type CDR3 ASSPTGGSPSPLH: the enrichment under setting [1] was found to be 0.797 and the enrichment under setting [2] turned out to be 0.
Taken in the same sequence, the figures for […] (CDR3 as printed); A1Q derived by comparing it with the table's wild-type CDR3 ASSPTGGSPSPLH were 0.998 and 0.
The like results for […] (CDR3 as printed); G7L derived by comparing it with the table's wild-type CDR3 ASSPTGGSPSPLH were, in that order, 1.32 and 0.
Take […] (CDR3 as printed); S2K derived by comparing it with the table's wild-type CDR3 ASSPTGGSPSPLH: the enrichment turned out to be 0.571 under setting [1] and 0 under setting [2].
Consider […] (CDR3 as printed); S3G derived by comparing it with the table's wild-type CDR3 ASSPTGGSPSPLH, for which the enrichment reads like this: under setting [1], 0.543; under setting [2], 0.
Taken in the same sequence, the figures for […] (CDR3 as printed); S3N derived by comparing it with the table's wild-type CDR3 ASSPTGGSPSPLH were 0.483 and 0.
Consider […] (CDR3 as printed); T5D derived by comparing it with the table's wild-type CDR3 ASSPTGGSPSPLH, for which the enrichment is 1.06 under setting [1] and 0 under setting [2].
Take […] (CDR3 as printed); T5L derived by comparing it with the table's wild-type CDR3 ASSPTGGSPSPLH: the enrichment by setting is: under setting [1], 0.514; under setting [2], 0.
Taken in the same sequence, the figures for […] (CDR3 as printed); T5G derived by comparing it with the table's wild-type CDR3 ASSPTGGSPSPLH were 0.828 and 0.
The like results for […] (CDR3 as printed); L12D derived by comparing it with the table's wild-type CDR3 ASSPTGGSPSPLH were, in that order, 0.327 and 0.
Taken in the same sequence, the figures for […] (CDR3 as printed); L12E derived by comparing it with the table's wild-type CDR3 ASSPTGGSPSPLH were 1.1 and 0.
Regarding […] (CDR3 as printed); S3C derived by comparing it with the table's wild-type CDR3 ASSPTGGSPSPLH, the enrichment by setting is: under setting [1], 0.656; under setting [2], 0.
As for […] (CDR3 as printed); L12N derived by comparing it with the table's wild-type CDR3 ASSPTGGSPSPLH, the enrichment stood at 0.99 under setting [1] and 0 under setting [2].
Regarding […] (CDR3 as printed); T5E derived by comparing it with the table's wild-type CDR3 ASSPTGGSPSPLH, the enrichment under setting [1] stood at 0.994 and the enrichment under setting [2] was 0.
As to […] (CDR3 as printed); S3I derived by comparing it with the table's wild-type CDR3 ASSPTGGSPSPLH, the enrichment stood at 1.21 under setting [1] and 0 under setting [2].
The like results for […] (CDR3 as printed); L12A derived by comparing it with the table's wild-type CDR3 ASSPTGGSPSPLH were, in that order, 1.68 and 0.
Consider […] (CDR3 as printed); T5A derived by comparing it with the table's wild-type CDR3 ASSPTGGSPSPLH, for which the enrichment came out at 0.817 under setting [1] and 0 under setting [2].
Consider […] (CDR3 as printed); L12H derived by comparing it with the table's wild-type CDR3 ASSPTGGSPSPLH, for which the enrichment worked out at 0.844 under setting [1] and 0 under setting [2].
On to […] (CDR3 as printed); L12C derived by comparing it with the table's wild-type CDR3 ASSPTGGSPSPLH, for which the enrichment by setting is: under setting [1], 0.764; under setting [2], 0.
Taken in the same sequence, the figures for […] (CDR3 as printed); H13E derived by comparing it with the table's wild-type CDR3 ASSPTGGSPSPLH were 0.868 and 0.
In the case of […] (CDR3 as printed); S2Y derived by comparing it with the table's wild-type CDR3 ASSPTGGSPSPLH, the enrichment reads like this: under setting [1], 0.769; under setting [2], 0.
On to […] (CDR3 as printed); G7D derived by comparing it with the table's wild-type CDR3 ASSPTGGSPSPLH, for which the enrichment under setting [1] worked out at 1.18 and the enrichment under setting [2] amounted to 0.
Regarding […] (CDR3 as printed); S10D derived by comparing it with the table's wild-type CDR3 ASSPTGGSPSPLH, the enrichment is, setting by setting: under setting [1], 0.754; under setting [2], 0.
Taken in the same sequence, the figures for […] (CDR3 as printed); A1G derived by comparing it with the table's wild-type CDR3 ASSPTGGSPSPLH were 0.451 and 0.
Taken in the same sequence, the figures for […] (CDR3 as printed); S10H derived by comparing it with the table's wild-type CDR3 ASSPTGGSPSPLH were 0.949 and 0.
With […] (CDR3 as printed); A1W derived by comparing it with the table's wild-type CDR3 ASSPTGGSPSPLH, the enrichment is 0.805 under setting [1] and 0 under setting [2].
The like results for […] (CDR3 as printed); S8N derived by comparing it with the table's wild-type CDR3 ASSPTGGSPSPLH were, in that order, 1.07 and 0.
Take […] (CDR3 as printed); S8E derived by comparing it with the table's wild-type CDR3 ASSPTGGSPSPLH: the enrichment under setting [1] is 1.16 and the enrichment under setting [2] is 0.
The like results for […] (CDR3 as printed); P11N derived by comparing it with the table's wild-type CDR3 ASSPTGGSPSPLH were, in that order, 1.51 and 0.
With […] (CDR3 as printed); S8F derived by comparing it with the table's wild-type CDR3 ASSPTGGSPSPLH, the enrichment stood at 0.97 under setting [1] and 0 under setting [2].
Taken in the same sequence, the figures for […] (CDR3 as printed); P9S derived by comparing it with the table's wild-type CDR3 ASSPTGGSPSPLH were 0.771 and 0.
For […] (CDR3 as printed); G6S derived by comparing it with the table's wild-type CDR3 ASSPTGGSPSPLH, the enrichment under setting [1] was found to be 0.376 and the enrichment under setting [2] is 0.
Taken in the same sequence, the figures for […] (CDR3 as printed); S10G derived by comparing it with the table's wild-type CDR3 ASSPTGGSPSPLH were 0.33 and 0.
The like results for […] (CDR3 as printed); S8R derived by comparing it with the table's wild-type CDR3 ASSPTGGSPSPLH were, in that order, 0.977 and 0.
Taken in the same sequence, the figures for […] (CDR3 as printed); S3A derived by comparing it with the table's wild-type CDR3 ASSPTGGSPSPLH were 0.616 and 0.
On to […] (CDR3 as printed); S10V derived by comparing it with the table's wild-type CDR3 ASSPTGGSPSPLH, for which the enrichment by setting is: under setting [1], 0.96; under setting [2], 0.
Taken in the same sequence, the figures for […] (CDR3 as printed); P9Q derived by comparing it with the table's wild-type CDR3 ASSPTGGSPSPLH were 0.777 and 0.
Taken in the same sequence, the figures for […] (CDR3 as printed); S8G derived by comparing it with the table's wild-type CDR3 ASSPTGGSPSPLH were 0.725 and 0.
Taken in the same sequence, the figures for […] (CDR3 as printed); S3V derived by comparing it with the table's wild-type CDR3 ASSPTGGSPSPLH were 0.951 and 0.
Turning to […] (CDR3 as printed); G6P derived by comparing it with the table's wild-type CDR3 ASSPTGGSPSPLH, the enrichment runs as follows: under setting [1], 1.09; under setting [2], 0.
Consider […] (CDR3 as printed); H13N derived by comparing it with the table's wild-type CDR3 ASSPTGGSPSPLH, for which the enrichment reads like this: under setting [1], 0.56; under setting [2], 0.
The like results for […] (CDR3 as printed); P11I derived by comparing it with the table's wild-type CDR3 ASSPTGGSPSPLH were, in that order, 1.19 and 0.
On to […] (CDR3 as printed); G6W derived by comparing it with the table's wild-type CDR3 ASSPTGGSPSPLH, for which the enrichment is 1.44 under setting [1] and 0 under setting [2].
The like results for […] (CDR3 as printed); T5N derived by comparing it with the table's wild-type CDR3 ASSPTGGSPSPLH were, in that order, 0.924 and 0.
The like results for […] (CDR3 as printed); P9D derived by comparing it with the table's wild-type CDR3 ASSPTGGSPSPLH were, in that order, 0.994 and 0.
On to […] (CDR3 as printed); S10W derived by comparing it with the table's wild-type CDR3 ASSPTGGSPSPLH, for which the enrichment runs as follows: under setting [1], 1.12; under setting [2], 0.
With […] (CDR3 as printed); P11K derived by comparing it with the table's wild-type CDR3 ASSPTGGSPSPLH, the enrichment under setting [1] came to 0.634 and the enrichment under setting [2] amounted to 0.

Source of the values: publication PMC13397619.
